Source: US20150344583A1

Assays:
[1] = molecular target: human BCMA (huBCMA) on cells (human) (UniProt Q02223); assay: FACS, hu BCMA
[2] = molecular target: TACI on transiently transfected cells (human) (UniProt O14836); assay: FACS, hu TACI
[3] = molecular target: cynomolgus (Macaca fascicularis) BCMA on cells (cynomolgus (Macaca fascicularis)); assay: FACS, Cyno BCMA
[4] = molecular target: human BCMA (huBCMA) on cells (human) (UniProt Q02223); assay: APRIL blocking
[5] = molecular target: cynomolgus (Macaca fascicularis) BCMA on cells (cynomolgus (Macaca fascicularis)); assay: CynoBCMA O/N FACS
[6] = molecular target: recombinant soluble human BCMA (rhu BCMA), analyte of the Example 2 Biacore assay (human) (UniProt Q02223); assay: SPR (BIAcore 3000), steady state fit, antibody captured, rhu BCMA as analyte
Sequence of recombinant soluble human BCMA (rhu BCMA), analyte of the Example 2 Biacore assay (human) (Q02223 1-54 limits assumed): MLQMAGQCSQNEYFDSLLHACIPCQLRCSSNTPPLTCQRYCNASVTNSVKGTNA

Sequence of human BCMA (huBCMA) on cells (human) (Q02223 whole entry N81S): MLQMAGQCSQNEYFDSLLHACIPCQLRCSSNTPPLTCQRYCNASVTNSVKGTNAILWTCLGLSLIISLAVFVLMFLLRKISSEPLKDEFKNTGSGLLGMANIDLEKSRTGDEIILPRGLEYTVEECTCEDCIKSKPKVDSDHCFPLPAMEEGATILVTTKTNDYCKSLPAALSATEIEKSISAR
Sequence of cynomolgus (Macaca fascicularis) BCMA on cells (cynomolgus (Macaca fascicularis)) (Q02223 other isoform, or with tags, fused parts or gaps): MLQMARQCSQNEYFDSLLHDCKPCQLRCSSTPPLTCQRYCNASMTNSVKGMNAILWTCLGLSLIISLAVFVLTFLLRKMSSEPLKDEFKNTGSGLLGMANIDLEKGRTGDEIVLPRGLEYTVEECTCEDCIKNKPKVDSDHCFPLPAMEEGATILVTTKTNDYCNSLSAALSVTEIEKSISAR
Sequence of TACI on transiently transfected cells (human) (O14836 whole entry): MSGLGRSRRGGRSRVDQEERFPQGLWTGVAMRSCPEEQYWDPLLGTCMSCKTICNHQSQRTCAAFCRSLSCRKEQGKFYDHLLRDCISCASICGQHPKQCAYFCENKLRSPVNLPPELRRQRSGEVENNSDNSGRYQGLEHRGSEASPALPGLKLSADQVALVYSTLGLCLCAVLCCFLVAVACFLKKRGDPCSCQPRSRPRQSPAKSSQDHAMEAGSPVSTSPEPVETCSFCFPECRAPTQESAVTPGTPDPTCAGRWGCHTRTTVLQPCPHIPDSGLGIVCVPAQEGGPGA

B1: 33C7 (antibody, from a related filing, V domains shown)
VH: EVQLLESGGALVQPGGSLRLSCAASGFTFSSYAMNWVRQAPGKGLEWVSAISVGGDTYYADSVKGRFTISRDNSKNTLYLHVNSLSAEDSAVYYCAKDQVTLVRGVWYYYGLDVWGQGTTVTVSS
VL: VIVLIQSPLSLPVTPGEPASISCRSSQSLLHSNGNNYLDWYLQKPGQSPHLLISLGSNRTSGVPDRFSGSGSGTDFTLKISRVEAEDVGFYYCMQALQPPRRFGQGTKLEIKR
[1]
  MFI: 132000 MFI
[2]
  MFI: 1890 MFI
[3]
  MFI: 238000 MFI
[4]
  % Inhibition n=1: 68%
  % Inhibition n=2: 88%
  Avg. % Inhibition: 78%
[5]
  MFI: 109 MFI

B2: 11F12 (antibody, from a related filing, IgG1, V domains shown)
VH: QVQLVESGGGVVQPGRSLRLSCAASGFTFSSYGLHWVRQAPGKGLEWVALISYDGSNKYYADSVKGRFTISRDNSKNTLYLQMNSLRAEDTAVYYCWYSSSWTPLDYWGQGTLVTVSS
VL: DIQMTQSPSSLSASVGDRVTITCRASQGIRNDLGWYQQKPGKAPKRLIYAASSLQSGVPSRFSGSGSGTEFTLTISSLQPEDFATYYCLQYYSYPLTFGGGTKVEIKR
[6]
  Kd: 36.1 nM
